In paper PMC5173139, “Dual inhibition of ErbB1 and ErbB2 in cancer by recombinant human prolidase mutant hPEPD-G278D” (Oncotarget, 2016):

Experiments:
[1] = target: ErbB2 (Homo sapiens) (UniProt P04626); settings: cited from earlier work
[2] = target: ErbB1 ECD (Homo sapiens) (UniProt P00533); settings: cited from earlier work
[3] = target: human ErbB1 mutant lacking ECD subdomain 1 (aa #1-165) (human) (UniProt P00533); assay: ELISA; as a1 but with lysates of CHO-K1 cells transiently transfected for 24 h with wild-type ErbB1 or a subdomain deletion mutant; equal amounts of ErbB1 protein by immunoblot densitometry
[4] = target: human ErbB1 mutant lacking ECD subdomain 3 (aa #311-480) (human) (UniProt P00533); assay: as above
[5] = target: human ErbB1 mutant lacking ECD subdomain 4 (aa #481-620) (human) (UniProt P00533); assay: as above
[6] = target: T1, human ErbB1, full length, stably expressed in CHO-K1 cells (CHO-K1/ErbB1) (human, UniProt P00533 25-1210); assay: ELISA; wells coated with an antibody to the cytoplasmic tail of ErbB1; serially diluted His-tagged hPEPD or mutant plus CHO-K1/ErbB1 cell lysate (25 ug total protein), 37 C, 2 h; bound PEPD detected by biotin-conjugated anti-His antibody and streptavidin-HRP; CHO-K1 lysate as control; settings: one partner purified
T1 construct: human ErbB1 (EGF receptor), full length; source: CHO-K1, stably transfected (pCMV6-A-ERBB1-Puro, puromycin selection), in lysate

Molecule: prolidase (PEPD) (from UniProt P12955)
- Kd [1]: 7.3 nM
- Kd [2]: 5000 nM

B1: hPEPD-G278D, enzymatically inactive mutant of recombinant human prolidase (enzyme)
chain: MAAATGPSFWLGNETLKVPLALFALNRQRLCERLRKNPAVQAGSIVVLQGGEETQRYCTDTGVLFRQESFFHWAFGVTEPGCYGVIDVDTGKSTLFVPRLPASHATWMGKIHSKEHFKEKYAVDDVQYVDEIASVLTSQKPSVLLTLRGVNTDSGSVCREASFDGISKFEVNNTILHPEIVECRVFKTDMELEVLRYTNKISSEAHREVMKAVKVGMKEYELESLFEHYCYSRGGMRHSSYTCICGSGENSAVLHYGHAGAPNDRTIQNGDMCLFDMDGEYYCFASDITCSFPANGKFTADQKAVYEAVLRSSRAVMGAMKPGVWWPDMHRLADRIHLEELAHMGILSGSVDAMVQAHLGAVFMPHGLGHFLGIDVHDVGGYPEGVERIDEPGLRSLRTARHLQPGMVLTVEPGIYFIDHLLDEALADPARASFLNREVLQRFRGFGGVRIEEDVVVTDSGIELLTCVPRTVEEIEACMAGCDKAFTPFSGPK
- fold reduction of binding affinity (Kd) against wild-type ErbB1 [3]: 19.2 fold
- fold reduction of binding affinity (Kd) against wild-type ErbB1 [4]: 7.4 fold
- fold reduction of binding affinity (Kd) against wild-type ErbB1 [5]: 1.4 fold

B2: recombinant human prolidase (peptidase D), hPEPD (enzyme, UniProt P12955 1-493, looked up)
chain: MAAATGPSFWLGNETLKVPLALFALNRQRLCERLRKNPAVQAGSIVVLQGGEETQRYCTDTGVLFRQESFFHWAFGVTEPGCYGVIDVDTGKSTLFVPRLPASHATWMGKIHSKEHFKEKYAVDDVQYVDEIASVLTSQKPSVLLTLRGVNTDSGSVCREASFDGISKFEVNNTILHPEIVECRVFKTDMELEVLRYTNKISSEAHREVMKAVKVGMKEYELESLFEHYCYSRGGMRHSSYTCICGSGENSAVLHYGHAGAPNDRTIQNGDMCLFDMGGEYYCFASDITCSFPANGKFTADQKAVYEAVLRSSRAVMGAMKPGVWWPDMHRLADRIHLEELAHMGILSGSVDAMVQAHLGAVFMPHGLGHFLGIDVHDVGGYPEGVERIDEPGLRSLRTARHLQPGMVLTVEPGIYFIDHLLDEALADPARASFLNREVLQRFRGFGGVRIEEDVVVTDSGIELLTCVPRTVEEIEACMAGCDKAFTPFSGPK
notes: source: E. coli, as previously described [13, 17]; not shown: His tag, C-terminal, kept
- Kd [6]: 17.7 nM
